Reference: paper PMC2873776
Blank lines part the entries; values can stand above or below the substance they belong to.

What was measured:
[1] = target: CheAΔ289 (290–671) (T. maritima) (UniProt Q56310); experiment: pulsed dipolar ESR spectroscopy
[2] = target: CheA:CheW complex (CheAΔ289 dimer with one CheW bound to each subunit) (T. maritima) (UniProt Q56310); experiment: pulsed dipolar ESR spectroscopy
[3] = target: CheA (Thermotoga maritima) (UniProt Q56310); settings: cited from earlier work
CheA (Thermotoga maritima), sequence (Q56310 whole entry): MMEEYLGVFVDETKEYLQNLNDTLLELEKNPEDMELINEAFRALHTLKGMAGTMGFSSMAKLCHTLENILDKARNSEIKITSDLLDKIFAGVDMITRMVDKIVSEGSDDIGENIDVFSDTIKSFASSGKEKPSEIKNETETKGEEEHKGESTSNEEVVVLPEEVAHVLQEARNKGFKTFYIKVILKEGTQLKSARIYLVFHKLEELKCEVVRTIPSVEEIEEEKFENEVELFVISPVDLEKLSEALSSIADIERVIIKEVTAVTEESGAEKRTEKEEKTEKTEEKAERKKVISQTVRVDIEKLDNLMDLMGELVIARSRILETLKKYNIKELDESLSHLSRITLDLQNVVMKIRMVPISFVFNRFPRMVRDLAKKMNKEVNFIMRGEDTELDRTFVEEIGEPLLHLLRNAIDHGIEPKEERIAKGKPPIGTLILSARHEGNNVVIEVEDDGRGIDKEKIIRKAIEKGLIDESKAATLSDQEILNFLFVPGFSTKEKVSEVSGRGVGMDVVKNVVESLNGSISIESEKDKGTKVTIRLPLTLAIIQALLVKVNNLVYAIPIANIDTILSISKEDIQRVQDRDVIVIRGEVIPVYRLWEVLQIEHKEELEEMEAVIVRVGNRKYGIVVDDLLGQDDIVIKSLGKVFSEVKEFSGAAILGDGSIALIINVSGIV

CheW, sequence (Q56311 whole entry): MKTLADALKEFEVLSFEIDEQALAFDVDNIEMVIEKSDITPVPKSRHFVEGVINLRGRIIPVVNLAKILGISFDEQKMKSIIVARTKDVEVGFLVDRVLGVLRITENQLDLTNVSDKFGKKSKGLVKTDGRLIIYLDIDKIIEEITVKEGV

- stoichiometry N [1]: 4
Substance: CheAΔ289 (290–671) (from UniProt Q56310 290-671) (domain or fragment)

- stoichiometry N (Tm14 dimer per CheA:CheW dimer) [2]: 1
Substance: Tm14C (Tm14: residues 40–213) (domain or fragment)

Substance: CheW (from UniProt Q56311)
- Kd [3]: 100 nM
